Target: Siglec-10Fc (human) (UniProt Q96LC7)
Test: Biacore (SPR): control Fc compared with CD24Fc for binding of Siglec-10Fc; only the fitted value is printed under the KD line, no curve is drawn for the control

Chain of UniProt Q96LC7 (Q96LC7 17-546): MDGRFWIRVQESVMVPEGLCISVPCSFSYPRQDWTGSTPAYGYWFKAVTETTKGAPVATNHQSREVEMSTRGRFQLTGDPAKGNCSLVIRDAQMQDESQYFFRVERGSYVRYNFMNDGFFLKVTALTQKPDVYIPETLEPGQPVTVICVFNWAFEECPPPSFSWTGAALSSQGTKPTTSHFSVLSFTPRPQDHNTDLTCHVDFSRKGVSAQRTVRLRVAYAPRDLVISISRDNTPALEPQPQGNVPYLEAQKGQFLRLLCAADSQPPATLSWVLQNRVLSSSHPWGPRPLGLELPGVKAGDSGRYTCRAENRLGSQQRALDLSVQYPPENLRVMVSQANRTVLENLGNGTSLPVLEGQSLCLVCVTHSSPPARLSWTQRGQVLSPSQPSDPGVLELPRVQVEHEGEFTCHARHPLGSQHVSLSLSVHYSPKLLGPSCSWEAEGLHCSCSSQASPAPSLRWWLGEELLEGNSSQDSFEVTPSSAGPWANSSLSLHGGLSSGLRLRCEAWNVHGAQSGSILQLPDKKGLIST

For control Fc, the Kd was 16.2 µM.
